In US20160009801A1 (EMORY UNIVERSITY, published 2016):

Assays:
[1] = molecular target: T1, human glycoprotein Ib alpha (GPIba) on platelets (human, UniProt P07359 17-652); assay: flow cytometry on washed human platelets, FITC goat anti-mouse IgG
T1 construct: whole, on cells; On platelets GPIba is part of the GPIb-IX-V complex; also called human GPIba; washed human platelets

[2] = molecular target: T2, purified human GPIb-IX complex (human, UniProt P07359 17-652; P13224 26-206; P14770 17-177); assay: ELISA, purified mAb titrated on immobilized purified human GPIb-IX, fitted Kd
T2 construct: mature; Native complex purified from outdated human apheresis platelets; also called purified human glycoprotein (GP)Ib-IX; immobilized GPIb-IX
Procedure: (A, C, D) GPIb-IX or the peptide was immobilized in microtiter plates. Purified mAbs, each identified by the clone name and colored as indicated, and negative controls, in the form of mouse IgG or BSA, were added to the coated wells. The bound Ab was detected with biotinylated goat anti-mouse IgG. Data are presented as the mean SD (n=3).
After incubation in the blocking buffer (20 mmol L⁻¹ HEPES, 0.2 mol L⁻¹ NaCl, 0.05% Tween-20, 2% BSA, pH 7.4) at room temperature (RT) for 2 h, different doses of normal mouse IgG or purified mAb dissolved in the blocking buffer were added to the wells and incubated for 1 h. The wells were then washed three times with the blocking buffer without BSA and incubated for an additional 1 h with biotinylated goat anti-mouse IgG (1:50 in the blocking buffer). After three washes, the wells were incubated for 1 h with streptavidin alkaline phosphatase (1:2000 in the blocking buffer).

[3] = molecular target: T3, wild-type murine GPIba on WT (C57BL/6J) mouse platelets (mouse, UniProt O35930 17-734); assay: flow cytometry, biotin-labeled 5G6 on mouse whole blood, gated on platelets, FITC-streptavidin
T3 construct: whole, on cells; also called mouse GPIba; WT mouse platelets
T3 sequence (looked up): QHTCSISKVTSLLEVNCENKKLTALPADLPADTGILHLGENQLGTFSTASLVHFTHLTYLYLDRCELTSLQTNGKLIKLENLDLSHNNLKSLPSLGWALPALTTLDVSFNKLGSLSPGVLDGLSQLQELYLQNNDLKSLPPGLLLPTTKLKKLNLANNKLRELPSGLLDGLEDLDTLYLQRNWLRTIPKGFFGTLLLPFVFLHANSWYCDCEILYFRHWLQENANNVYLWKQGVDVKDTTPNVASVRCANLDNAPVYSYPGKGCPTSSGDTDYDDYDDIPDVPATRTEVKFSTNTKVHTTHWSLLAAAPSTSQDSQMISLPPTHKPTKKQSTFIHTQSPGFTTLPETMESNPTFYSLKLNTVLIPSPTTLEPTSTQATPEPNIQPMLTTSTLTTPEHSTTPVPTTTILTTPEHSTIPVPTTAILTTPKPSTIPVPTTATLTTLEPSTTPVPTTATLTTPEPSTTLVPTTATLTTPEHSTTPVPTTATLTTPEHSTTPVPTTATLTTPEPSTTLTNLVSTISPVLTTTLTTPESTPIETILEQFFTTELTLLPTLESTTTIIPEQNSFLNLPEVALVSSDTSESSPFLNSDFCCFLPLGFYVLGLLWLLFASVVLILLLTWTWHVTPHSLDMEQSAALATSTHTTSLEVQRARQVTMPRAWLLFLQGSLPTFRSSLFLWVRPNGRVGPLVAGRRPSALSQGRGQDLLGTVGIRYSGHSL
Procedure: The binding to platelets was analyzed by flow cytometry with gating specific on platelets.

Row | Binder | binding result [1] | Kd [2] [nM] | binding result [3]
1 | monoclonal antibody 3D1 (antibody, V domains shown, Mouse hybridoma mAb; also called 3D1.C1; 3D1.E3) VH: QIQLVQSGPELKKPGETVKISCKASGYTFTDFAMHWVKQAPRKGLKWMGWINTETGEPTYADDFKGRFAFSLGTSASTAFLQINNLKNEDTATYFCSSDPLDYWGQGTTLTVSS VL: DVVVTQTPLSLPVSFGDQVSISCRSSQSLTNSYGNTYLSWFLHKPGQSPQLLIYEISNRFSGVPDRFSGSGSGTDFTLKISTIKPEDLGIYYCLQGTHQPWTFGGGTKLEIK | binds | – | –
2 | monoclonal antibody 5G6 (antibody, V domains shown, Mouse hybridoma mAb raised against the human GPIba Glu455-Phe478 peptide; also called clone 5G6; 5G6.B4) VH: QVTLKESGPGILQPSQTLSLTCSFSGFSLSTSNMGVVWIRQPSGKGLEWLLHILWNDGKFYNPALKSRLTISKDTYNNQVFLKIANVDTADTATYYCARLFTTTTSGYFDVWGAGTTVTVSS VL: DIQMTQSPASLSASVGETVTITCRASGNIYNYLAWYQQKQGKSPQLLVYNAKTLADGVPSRFSGSGSGTQYSLKINSLQPEDFGSYFCQHFWDTPWTFGGGTKLEIK | – | 3.29 | no binding (tested: 4 µg mL^-1)
3 | monoclonal antibody 15C6 (antibody, V domains shown, Mouse hybridoma mAb; also called 15C6.D3) VH: QVTLKESGPGILQPSQTLSLTCSFSGFSLSTSNMGVVWIRQSSGKGLEWLLHILWNDGKFYNPALKSRLTISKDTYNNQVFLKIANVDTADTATYYCARLFSTTTSGYFDVWGAGTTVTVSS VL: DIQMTQSPASLSASVGETVTITCRASGNIHNYLAWYQQKQGKSPQLLVYNAETLADGVPSRFSGSESGTQYSLKINSLQPEDFGTYYCQHFWDTPWTFGGGTKLEIK | – | 28.2 | –
